# Data from US20240301067A1.
# Tests used:
# [1] = target: Human PD-1 on CHO-S cells (human) (UniProt Q15116); test: FACS on CHO-S.hPro1.C6 cells
# [2] = target: Cynomolgus monkey PD-1 on transiently transfected 293F cells (cynomolgus monkey); test: FACS on cyno PD-1 transfected 293F cells, experiment 1
# [3] = target: Cynomolgus monkey PD-1 on transiently transfected 293F cells (cynomolgus monkey); test: FACS on cyno PD-1 transfected 293F cells, experiment 2
# [4] = target: Human PD-1 on CHO-S cells (human) (UniProt Q15116); test: FACS competition on CHO-S.hPro1.C6 cells; competitor hProL1.ECD.mFc 5 µg/mL
# [5] = target: Cynomolgus PD-1 (soluble analyte in SPR, Table 11) (cynomolgus) (UniProt B0LAJ3); test: SPR Biacore 8K; antibody captured on anti-human Fc chip, PD-1 injected; 1:1 fit
# Chain of Cynomolgus PD-1 (soluble analyte in SPR, Table 11) (cynomolgus) (B0LAJ3 entry or part of it limits assumed): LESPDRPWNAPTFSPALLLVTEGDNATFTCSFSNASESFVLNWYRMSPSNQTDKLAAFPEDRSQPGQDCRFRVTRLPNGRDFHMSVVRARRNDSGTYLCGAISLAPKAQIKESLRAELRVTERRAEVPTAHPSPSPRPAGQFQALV
# [6] = target: Human PD-1 (soluble analyte in SPR, Table 11) (human) (UniProt Q15116); test: as above
# Chain of Human PD-1 (soluble analyte in SPR, Table 11) (human) (Q15116 25-167 limits assumed): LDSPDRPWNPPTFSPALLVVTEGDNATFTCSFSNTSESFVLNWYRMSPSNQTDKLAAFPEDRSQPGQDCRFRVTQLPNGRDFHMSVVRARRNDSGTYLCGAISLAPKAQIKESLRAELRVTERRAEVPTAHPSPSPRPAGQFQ
# [7] = target: Human PD-1 extracellular domain, mFc tag (human) (UniProt Q15116); test: ELISA competition on coated hPro1.ECD.mFc; competitor hPro1L2.ECD.His; experiment 1
# Chain of Human PD-1 extracellular domain, mFc tag (human) (Q15116 25-170): as the sequence (B0LAJ3 entry or part of it limits assumed) above, with E2D, A10P, L19V, A35T, R75Q, A144T counted along it
# [8] = target: Human PD-1 extracellular domain, mFc tag (human) (UniProt Q15116); test: ELISA competition on coated hPro1.ECD.mFc; competitor hPro1L2.ECD.His; experiment 2
# [9] = target: Cynomolgus PD-1 extracellular domain, hFc tag (cynomolgus) (UniProt B0LAJ3); test: ELISA competition on coated cynoPro1.ECD.hFc; competitor cynoProL1.ECD.hFc.biotin 2.5 µg/mL; experiment 1
# Chain of Cynomolgus PD-1 extracellular domain, hFc tag (cynomolgus) (B0LAJ3 entry or part of it limits assumed): as the sequence (B0LAJ3 entry or part of it limits assumed) above
# [10] = target: Cynomolgus PD-1 extracellular domain, hFc tag (cynomolgus) (UniProt B0LAJ3); test: ELISA competition on coated cynoPro1.ECD.hFc; competitor cynoProL1.ECD.hFc.biotin 2.5 µg/mL; experiment 2
# Chain of Human PD-1 on CHO-S cells (human) (Q15116 25-288): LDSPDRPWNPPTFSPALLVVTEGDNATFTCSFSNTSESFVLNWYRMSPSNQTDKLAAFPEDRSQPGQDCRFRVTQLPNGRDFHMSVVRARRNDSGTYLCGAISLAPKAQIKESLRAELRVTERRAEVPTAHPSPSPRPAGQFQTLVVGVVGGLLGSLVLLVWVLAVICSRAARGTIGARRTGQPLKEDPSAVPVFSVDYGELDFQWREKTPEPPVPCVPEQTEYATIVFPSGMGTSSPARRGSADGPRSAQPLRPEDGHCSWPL
substance,measurement,setting,value
"Benchmark antibody 1 (Opdivo, Nivolumab)",EC50,[1],0.409 to 0.749 nM
same,EC50,[2],0.55 nM
same,EC50,[3],1.98 nM
same,IC50,[4],0.544 nM
same,Kd,[5],2.23 nM
same,koff,[5],0.000672 s⁻¹
same,kon,[5],301000 M⁻¹ s⁻¹
same,Kd,[6],2.87 nM
same,koff,[6],0.00116 s⁻¹
same,kon,[6],405000 M⁻¹ s⁻¹
same,IC50,[7],0.95 nM
same,IC50,[8],0.534 nM
same,IC50,[9],0.47 nM
same,IC50,[10],0.585 nM
